Data: paper PMC11592359

Columns and labels:
[1] = target: mouse iodothyronine deiodinase 2, residues 49-262 (Mus musculus) (UniProt Q9Z1Y9); experiment: not stated; size analysis of the recombinantly produced construct (Supplementary Figure S3C)
[2] = target: LZ-mDio3^cat: leucine zipper of A. thaliana Hy5 (residues 112-150) fused N-terminally to mouse Dio3 78-304 Sec170Cys (A. thaliana | Mus musculus); experiment: SEC; size exclusion chromatography of the purified recombinant protein (final purification step); 20 mM Tris/HCl pH 7.5/7.8, 200 mM NaCl, 1 mM TCEP; compared with molecular weight standards
[3] = target: LZ-mDio3^cat: leucine zipper of A. thaliana Hy5 (residues 112-150) fused N-terminally to mouse Dio3 78-304 Sec170Cys (A. thaliana | Mus musculus); experiment: native gel or EMSA; Blue Native PAGE, 5% stacking and 12.5% resolving gel, 4 °C; samples from the monomer and the dimer SEC peaks; catalase, BSA and chicken egg albumin as size markers
[4] = target: mouse iodothyronine deiodinase 2 catalytic domain, residues 71-262 (Sec130Cys) (Mus musculus) (UniProt Q9Z1Y9); experiment: SEC; size exclusion chromatography of the purified recombinant protein (final purification step); 20 mM Tris/HCl pH 7.5/7.8, 200 mM NaCl, 1 mM TCEP; compared with molecular weight standards
[5] = target: mouse iodothyronine deiodinase 2 catalytic domain, residues 71-262 (Sec130Cys) (Mus musculus) (UniProt Q9Z1Y9); experiment: SEC-MALS; SEC with multi angle light scattering of the two species of Dio2-71-262 (Supplementary Figure S3A)
[6] = target: mouse iodothyronine deiodinase 2 catalytic domain, residues 71-262 (Sec130Cys) (Mus musculus) (UniProt Q9Z1Y9); experiment: native gel or EMSA; Blue Native PAGE, 5% stacking and 12.5% resolving gel, 4 °C; samples from the monomer and the dimer SEC peaks; catalase, BSA and chicken egg albumin as size markers

## mouse iodothyronine deiodinase 2, residues 49-262 (from UniProt Q9Z1Y9 49-262) (domain or fragment)
[1]
  stoichiometry N: 2

## LZ-mDio3^cat: leucine zipper of A. thaliana Hy5 (residues 112-150) fused N-terminally to mouse Dio3 78-304 Sec170Cys (from UniProt O24646 112-150; Q91ZI8 78-304)
[2]
  stoichiometry N: 2
[3]
  stoichiometry N: 2

## mouse iodothyronine deiodinase 2 catalytic domain, residues 71-262 (Sec130Cys) (from UniProt Q9Z1Y9 71-262) (domain or fragment)
[4]
  stoichiometry N: 2
[5]
  stoichiometry N: 2
[6]
  stoichiometry N: 2
